Laboratory results published in publication PMC10847417, “CIP2A induces PKM2 tetramer formation and oxidative phosphorylation in non-small cell lung cancer” (Cell Discovery, 2024).

B1: purified recombinant S287D PKM2 expressed in bacteria (enzyme)
chain: not shown
notes: PKM2 S287D (phospho-mimetic), recombinant; construct, tag and limits not described; source: expressed in bacteria, purified recombinant
B2: purified recombinant S287A PKM2 expressed in bacteria (enzyme)
chain: not shown
notes: PKM2 S287A, recombinant; construct, tag and limits not described; source: expressed in bacteria, purified recombinant

Target: the molecule itself
Experiment: SEC; purified recombinant WT, S287A and S287D PKM2 expressed in bacteria; size exclusion chromatography with molecular mass standards

Row | Protein | stoichiometry N
1 | B1 | 4
2 | B2 | 2
